# B1: PI4K2A (parent)
# chain: FVKDPQGRIIAVFKPKNEEPYGHL
# Variants of: B1
# Experiment: protein stability index of a GFP-peptide fusion (GPS, HEK-293T) (PSI 1-6); higher = more stable
# Conditions: c terminus: a fixed tail appended
# 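Note: lentivirally expressed fusions sorted by FACS into six bins by GFP to DsRed ratio, PSI derived from sequencing read proportions per bin multiplied by bin number.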
row,Variant,protein stability index
1,FVKDPQGRIIAVFKPKNENPYGHL [E19N],1.91
2,FVKDPQGRIIAVFKPKNEVPYGHL [E19V],1.73
3,FVKDPQGRIIAVFKPKNEYPYGHL [E19Y],1.73
4,FVKDPQGRIIAVFKPKNETPYGHL [E19T],2.09
5,FVKDPQGRIIAVFKPKNSEPYGHL [E18S],2.2
6,FVKDPQGRIIAVFKPKNQEPYGHL [E18Q],1.8
7,FVKDPQGRIIAVFKPKNGEPYGHL [E18G],3.17
8,FVKDPQGRIIAVFKPKNCEPYGHL [E18C],2.02
9,FVKDPQGRIIAVFKPKNAEPYGHL [E18A],2.39
10,FVKDPQGRIIAVFKPKNREPYGHL [E18R],2.1
11,FVKDPQGRIIAVFKPKNMEPYGHL [E18M],2.08
12,FVKDPQGRIIAVFKPKNYEPYGHL [E18Y],2.98
13,FVKDPQGRIIAVFKPKNTEPYGHL [E18T],1.35
14,FVKDPQGRIIAVFKPKNDEPYGHL [E18D],2.16
15,FVKDPQGRIIAVFKPKNIEPYGHL [E18I],2.22
16,FVKDPQGRIIAVFKPKNKEPYGHL [E18K],2.04
17,FVKDPQGRIIAVFKPKNNEPYGHL [E18N],1.48
18,FVKDPQGRIIAVFKPKNFEPYGHL [E18F],1.96
19,FVKDPQGRIIAVFKPKNVEPYGHL [E18V],2.23
20,FVKDPQGRIIAVFKPKNPEPYGHL [E18P],1.79
21,FVKDPQGRIIAVFKPKNHEPYGHL [E18H],1.62
22,FVKDPQGRIIAVFKPKNLEPYGHL [E18L],3.88
23,FVKDPQGRIIAVFKPKMEEPYGHL [N17M],1.9
24,FVKDPQGRIIAVFKPKFEEPYGHL [N17F],1.57

row,Variant,protein stability index
1,FVKDPQGRIIAVFKPKLEEPYGHL [N17L],2.35
2,FVKDPQGRIIAVFKPKVEEPYGHL [N17V],1.66
3,FVKDPQGRIIAVFKPKREEPYGHL [N17R],1.3
4,FVKDPQGRIIAVFKPKPEEPYGHL [N17P],2
5,FVKDPQGRIIAVFKPKTEEPYGHL [N17T],1.92
6,FVKDPQGRIIAVFKPKQEEPYGHL [N17Q],1.97
7,FVKDPQGRIIAVFKPKWEEPYGHL [N17W],2.41
8,FVKDPQGRIIAVFKPKSEEPYGHL [N17S],1.64
9,FVKDPQGRIIAVFKPKYEEPYGHL [N17Y],1.68
10,FVKDPQGRIIAVFKPKIEEPYGHL [N17I],1.63
11,FVKDPQGRIIAVFKPKKEEPYGHL [N17K],1.73
12,FVKDPQGRIIAVFKPKHEEPYGHL [N17H],2.38
13,FVKDPQGRIIAVFKPKGEEPYGHL [N17G],1.48
14,FVKDPQGRIIAVFKPKNEELYGHL [P20L],1.55
15,FVKDPQGRIIAVFKPKNEEQYGHL [P20Q],1.7
16,FVKDPQGRIIAVFKPKNEEFYGHL [P20F],1.94
17,FVKDPQGRIIAVFKPKNEETYGHL [P20T],2.01
18,FVKDPQGRIIAVFKPKNEEIYGHL [P20I],1.76
19,FVKDPQGRIIAVFKPKNEEAYGHL [P20A],2.94
20,FVKDPQGRIIAVFKPKNEECYGHL [P20C],1.78
21,FVKDPQGRIIAVFKPKNEEKYGHL [P20K],1.2
22,FVKDPQGRIIAVFKPKNEEWYGHL [P20W],2.05
23,FVKDPQGRIIAVFKPKNEERYGHL [P20R],1.7
24,FVKDPQGRIIAVFKPKNEENYGHL [P20N],1.94

row,Variant,protein stability index
1,FVKDPQGRIIAVFKPKNEEVYGHL [P20V],1.16
2,FVKDPQGRIIAVFKPKNEEEYGHL [P20E],1.75
3,FVKDPQGRIIAVFKPKNEEGYGHL [P20G],2.05
4,FVKDPQGRIIAVFKPKNEEDYGHL [P20D],2.05
5,FVKDPQGRIIAVFKPKNEESYGHL [P20S],2
6,FVKDPQGRIIAVFKPKNEEMYGHL [P20M],2.65
7,FVKDPQGRIIAVFKPKNEEHYGHL [P20H],1.74
8,FVKDPQGRIIAVFKPKNEEYYGHL [P20Y],1.91
9,FVKDPQGRIIAVFKPKNEEPEGHL [Y21E],1.44
10,FVKDPQGRIIAVFKPKNEEPTGHL [Y21T],1.74
11,FVKDPQGRIIAVFKPKNEEPNGHL [Y21N],1.5
12,FVKDPQGRIIAVFKPKNEEPAGHL [Y21A],1.57
13,FVKDPQGRIIAVFKPKNEEPSGHL [Y21S],1.72
14,FVKDPQGRIIAVFKPKNEEPCGHL [Y21C],2
15,FVKDPQGRIIAVFKPKNEEPVGHL [Y21V],1.65
16,FVKDPQGRIIAVFKPKNEEPPGHL [Y21P],2.17
17,FVKDPQGRIIAVFKPKNEEPQGHL [Y21Q],2.53
18,FVKDPQGRIIAVFKPKNEEPDGHL [Y21D],1.85
19,FVKDPQGRIIAVFKPKNEEPIGHL [Y21I],2.91
20,FVKDPQGRIIAVFKPKNEEPMGHL [Y21M],1.54
21,FVKDPQGRIIAVFKPKNEEPKGHL [Y21K],2.04
22,FVKDPQGRIIAVFKPKNEEPGGHL [Y21G],1.65
23,FVKDPQGRIIAVFKPKNEEPFGHL [Y21F],2.21
24,FVKDPQGRIIAVFKPKNEEPWGHL [Y21W],2.26

row,Variant,protein stability index
1,FVKDPQGRIIAVFKPKNEEPRGHL [Y21R],2.11
2,FVKDPQGRIIAVFKPKNEEPLGHL [Y21L],2.85
3,FVKDPQGRIIAVFKPKNEEPHGHL [Y21H],2.59
4,FVKDPQGRIIAVFKPKNEEPYKHL [G22K],2.44
5,FVKDPQGRIIAVFKPKNEEPYHHL [G22H],1.88
6,FVKDPQGRIIAVFKPKNEEPYFHL [G22F],1.81
7,FVKDPQGRIIAVFKPKNEEPYAHL [G22A],1.66
8,FVKDPQGRIIAVFKPKNEEPYWHL [G22W],1.72
9,FVKDPQGRIIAVFKPKNEEPYDHL [G22D],1.74
10,FVKDPQGRIIAVFKPKNEEPYRHL [G22R],2.37
11,FVKDPQGRIIAVFKPKNEEPYVHL [G22V],1.55
12,FVKDPQGRIIAVFKPKNEEPYEHL [G22E],2.02
13,FVKDPQGRIIAVFKPKNEEPYYHL [G22Y],1.48
14,FVKDPQGRIIAVFKPKNEEPYLHL [G22L],2.03
15,FVKDPQGRIIAVFKPKNEEPYMHL [G22M],2.1
16,FVKDPQGRIIAVFKPKNEEPYPHL [G22P],2.63
17,FVKDPQGRIIAVFKPKNEEPYTHL [G22T],1.41
18,FVKDPQGRIIAVFKPKNEEPYCHL [G22C],1.93
19,FVKDPQGRIIAVFKPKNEEPYIHL [G22I],1.74
20,FVKDPQGRIIAVFKPKNEEPYSHL [G22S],2.65
21,FVKDPQGRIIAVFKPKNEEPYQHL [G22Q],2.09
22,FVKDPQGRIIAVFKPKNEEPYNHL [G22N],1.73
